Data taken from patent US20230272055A1 (Incyte, published 2023).

T1: human mutCALR on BaF3 cells stably expressing human MPL and human mutCALR (MPL-mutCALR cells) (human)
T1 construct: also called mutant calreticulin
T1 chain: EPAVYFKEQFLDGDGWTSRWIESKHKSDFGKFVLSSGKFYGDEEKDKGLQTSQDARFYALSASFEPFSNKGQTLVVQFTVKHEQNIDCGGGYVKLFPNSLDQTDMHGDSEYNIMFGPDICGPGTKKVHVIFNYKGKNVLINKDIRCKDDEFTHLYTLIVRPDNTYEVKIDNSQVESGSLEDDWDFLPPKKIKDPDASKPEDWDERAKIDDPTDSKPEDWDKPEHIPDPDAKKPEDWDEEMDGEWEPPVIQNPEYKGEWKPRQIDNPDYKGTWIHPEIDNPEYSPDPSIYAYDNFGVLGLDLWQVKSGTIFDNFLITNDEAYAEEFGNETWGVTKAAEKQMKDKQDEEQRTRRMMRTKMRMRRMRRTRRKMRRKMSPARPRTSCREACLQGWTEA


Biological target: T1, human mutCALR on BaF3 cells stably …
Assay: flow cytometry, BaF3 MPL-mutCALR cells
Description: On the day of the assay, cells were washed and resuspended in assay buffer. Approximately 200,000 cells/well were added to 96-well plates and stained with the indicated concentration of antibodies for 30 minutes on ice. Cells were then washed and stained with goat anti-human secondary conjugated to R-phycoerythrin (R-PE) (Jackson Immuno Research Laboratories) for 30 minutes on ice. The cells were then washed and analyzed by flow cytometry.

| Binder | MPL-mutCALR AUC | EC50 |
| --- | --- | --- |
| anti-mutCALR antibody clone 124 (antibody, human IgG1, lambda, N297A) heavy: not shown light: SYELTQPPSVSVAPGKTARITCGGDNIGSKSVHWYQQKPGQAPVLVVYDDSDRPSGIPERFSGSNSGNTATLTINRVEAGDEADYYCQVWDSSNDLLIFGGGTKLTVLGQPKAAPSVTLFPPSSEELQANKATLVCLISDFYPGAVTVAWKADSSPVKAGVETTTPSKQSNNKYAASSYLSLTPEQWKSHRSYSCQVTHEGSTVEKTVAPTECS | 93700 |  |
| anti-mutCALR antibody clone 135 (antibody, human IgG1, lambda, N297A, V domains shown) VH: EVQLVQSGAEVKKPGASVKVSCKVSGYTLTELSMQWVRQAPGKGLEWMGGFDPDAGETMYAEKFQGRLTVTEDTSTDTVYMELRSLTSEDTALYFCATSPGYDFFDYWGQGTLVTVSS VL: SYVLTQPPSVSVAPGKTARITCGGDNIGSKSVHWYQQKPGQAPVLVVYDDSDRPSGIPERFSGSNSGNTATLTISRVEAGDEADYYCQVWDSSNDLLIFGGGTKLTVLG | 56300 | 3.2 ng/mL |
| anti-mutCALR antibody clone 143 (antibody, human IgG1, lambda, N297A, V domains shown) VH: EVQLVQSGAEVKKPGASVKVSCKVSGYTLTELSMQWVRQAPGKGLEWMGGFDPDDAETMYAEKFQGRLTVTEDTSTDTVYMELSSLRSEDTAVYFCATSPGYDFFDYWGQGTLVTVSS VL: SYVLTQPPSVSVAPGKTARITCGGDNIGSKSVHWYQQKPGQAPVLVVYDDSDRPSGIPERFSGSNSGNTATLTISRVEAGDEADYYCQVWDSSNDLLIFGGGTKLTVLG | 69900 | 7.9 ng/mL |
| anti-mutCALR antibody clone 127 (antibody, human IgG1, lambda, N297A, V domains shown) VH: EVQLVQSGAEVKKPGASVKVSCKVSGYTLTELSMQWVRQAPGKGLEWMGGFDPDEGETMYAEKFQGRLTVTEDTSTDTVYMELRSLTSEDTALYFCATSPGYDFFDYWGQGTLVTVSS VL: SYELTQPPSVSVAPGKTARITCGGDNIGSKSVHWYQQKPGQAPVLVVYDDSDRPSGIPERFSGSNSGNTATLTINRVEAGDEADYYCQVWDSSNDLLIFGGGTKLTVLG | 73500 | 1.4 ng/mL |
| anti-mutCALR antibody clone 142 (antibody, human IgG1, lambda, N297A, V domains shown) VH: EVQLVQSGAEVKKPGASVKVSCKVSGYTLTELSMQWVRQAPGKGLEWMGGFDPDEGETMYAEKFQGRLTVTEDTSTDTVYMELSSLRSEDTAVYFCATSPGYDFFDYWGQGTLVTVSS VL: SYVLTQPPSVSVAPGKTARITCGGDNIGSKSVHWYQQKPGQAPVLVVYDDSDRPSGIPERFSGSNSGNTATLTISRVEAGDEADYYCQVWDSSNDLLIFGGGTKLTVLG | 71100 | 2.3 ng/mL |
| anti-mutCALR antibody clone 133 (antibody, human IgG1, lambda, N297A, V domains shown) VH: EVQLVQSGAEVKKPGASVKVSCKVSGYTLTELSMQWVRQAPGKGLEWMGGFDPDDAETMYAEKFQGRLTVTEDTSTDTVYMELSSLRSEDTAVYFCATSPGYDFFDYWGQGTLVTVSS VL: SYELTQPPSVSVAPGKTARITCGGDNIGSKSVHWYQQKPGQAPVLVVYDDSDRPSGIPERFSGSNSGNTATLTINRVEAGDEADYYCQVWDSSNDLLIFGGGTKLTVLG | 85200 | 1.7 ng/mL |
| anti-mutCALR antibody clone 170 (antibody, human IgG1, lambda, N297A) heavy: not shown light: SYVLTQPPSVSVAPGQTARITCGGSDIGDEIVHWYQQKPGQAPVLVVYDDSDRPSGIPERFSGSNSGNTATLTISRAQAGDEADYYCQVWDSSSDHLIFGGGTKLTVLGQPKAAPSVTLFPPSSEELQANKATLVCLISDFYPGAVTVAWKADSSPVKAGVETTTPSKQSNNKYAASSYLSLTPEQWKSHRSYSCQVTHEGSTVEKTVAPTECS | 76400 | 23.2 ng/mL |
| anti-mutCALR antibody clone 134 (antibody, human IgG1, lambda, N297A) heavy: not shown light: SYVLTQPPSVSVAPGKTARITCGGDNIGSKSVHWYQQKPGQAPVLVVYDDSDRPSGIPERFSGSNSGNTATLTISRVEAGDEADYYCQVWDSSNDLLIFGGGTKLTVLGQPKAAPSVTLFPPSSEELQANKATLVCLISDFYPGAVTVAWKADSSPVKAGVETTTPSKQSNNKYAASSYLSLTPEQWKSHRSYSCQVTHEGSTVEKTVAPTECS | 96700 |  |
| anti-mutCALR antibody clone 136 (antibody, human IgG1, lambda, N297A, V domains shown) VH: EVQLVQSGAEVKKPGASVKVSCKVSGYTLTELSMQWVRQAPGKGLEWMGGFDPDSGETMYAEKFQGRLTVTEDTSTDTVYMELRSLTSEDTALYFCATSPGYDFFDYWGQGTLVTVSS VL: SYVLTQPPSVSVAPGKTARITCGGDNIGSKSVHWYQQKPGQAPVLVVYDDSDRPSGIPERFSGSNSGNTATLTISRVEAGDEADYYCQVWDSSNDLLIFGGGTKLTVLG | 65000 | 2 ng/mL |
| anti-mutCALR antibody clone 130 (antibody, human IgG1, lambda, N297A, V domains shown) VH: EVQLVQSGAEVKKPGASVKVSCKVSGYTLTELSMQWVRQAPGKGLEWMGGFDPDAGETMYAEKFQGRLTVTEDTSTDTVYMELSSLRSEDTAVYFCATSPGYDFFDYWGQGTLVTVSS VL: SYELTQPPSVSVAPGKTARITCGGDNIGSKSVHWYQQKPGQAPVLVVYDDSDRPSGIPERFSGSNSGNTATLTINRVEAGDEADYYCQVWDSSNDLLIFGGGTKLTVLG | 58300 | 1.7 ng/mL |
| anti-mutCALR antibody clone 132 (antibody, human IgG1, lambda, N297A, V domains shown) VH: EVQLVQSGAEVKKPGASVKVSCKVSGYTLTELSMQWVRQAPGKGLEWMGGFDPDEGETMYAEKFQGRLTVTEDTSTDTVYMELSSLRSEDTAVYFCATSPGYDFFDYWGQGTLVTVSS VL: SYELTQPPSVSVAPGKTARITCGGDNIGSKSVHWYQQKPGQAPVLVVYDDSDRPSGIPERFSGSNSGNTATLTINRVEAGDEADYYCQVWDSSNDLLIFGGGTKLTVLG | 73400 | 0.4 ng/mL |
| anti-mutCALR antibody clone 141 (antibody, human IgG1, lambda, N297A, V domains shown) VH: EVQLVQSGAEVKKPGASVKVSCKVSGYTLTELSMQWVRQAPGKGLEWMGGFDPDSGETMYAEKFQGRLTVTEDTSTDTVYMELSSLRSEDTAVYFCATSPGYDFFDYWGQGTLVTVSS VL: SYVLTQPPSVSVAPGKTARITCGGDNIGSKSVHWYQQKPGQAPVLVVYDDSDRPSGIPERFSGSNSGNTATLTISRVEAGDEADYYCQVWDSSNDLLIFGGGTKLTVLG | 60800 | 6.3 ng/mL |
| anti-mutCALR antibody clone 138 (antibody, human IgG1, lambda, N297A, V domains shown) VH: EVQLVQSGAEVKKPGASVKVSCKVSGYTLTELSMQWVRQAPGKGLEWMGGFDPDDAETMYAEKFQGRLTVTEDTSTDTVYMELRSLTSEDTALYFCATSPGYDFFDYWGQGTLVTVSS VL: SYVLTQPPSVSVAPGKTARITCGGDNIGSKSVHWYQQKPGQAPVLVVYDDSDRPSGIPERFSGSNSGNTATLTISRVEAGDEADYYCQVWDSSNDLLIFGGGTKLTVLG | 85800 | 2.6 ng/mL |
| anti-mutCALR antibody clone 131 (antibody, human IgG1, lambda, N297A, V domains shown) VH: EVQLVQSGAEVKKPGASVKVSCKVSGYTLTELSMQWVRQAPGKGLEWMGGFDPDSGETMYAEKFQGRLTVTEDTSTDTVYMELSSLRSEDTAVYFCATSPGYDFFDYWGQGTLVTVSS VL: SYELTQPPSVSVAPGKTARITCGGDNIGSKSVHWYQQKPGQAPVLVVYDDSDRPSGIPERFSGSNSGNTATLTINRVEAGDEADYYCQVWDSSNDLLIFGGGTKLTVLG | 58300 | 1.1 ng/mL |
| anti-mutCALR antibody clone 125 (antibody, human IgG1, lambda, N297A, V domains shown) VH: EVQLVQSGAEVKKPGASVKVSCKVSGYTLTELSMQWVRQAPGKGLEWMGGFDPDAGETMYAEKFQGRLTVTEDTSTDTVYMELRSLTSEDTALYFCATSPGYDFFDYWGQGTLVTVSS VL: SYELTQPPSVSVAPGKTARITCGGDNIGSKSVHWYQQKPGQAPVLVVYDDSDRPSGIPERFSGSNSGNTATLTINRVEAGDEADYYCQVWDSSNDLLIFGGGTKLTVLG | 62700 | 2.1 ng/mL |
| anti-mutCALR antibody clone 128 (antibody, human IgG1, lambda, N297A, V domains shown) VH: EVQLVQSGAEVKKPGASVKVSCKVSGYTLTELSMQWVRQAPGKGLEWMGGFDPDDAETMYAEKFQGRLTVTEDTSTDTVYMELRSLTSEDTALYFCATSPGYDFFDYWGQGTLVTVSS VL: SYELTQPPSVSVAPGKTARITCGGDNIGSKSVHWYQQKPGQAPVLVVYDDSDRPSGIPERFSGSNSGNTATLTINRVEAGDEADYYCQVWDSSNDLLIFGGGTKLTVLG | 88900 |  |
| anti-mutCALR antibody clone 137 (antibody, human IgG1, lambda, N297A, V domains shown) VH: EVQLVQSGAEVKKPGASVKVSCKVSGYTLTELSMQWVRQAPGKGLEWMGGFDPDEGETMYAEKFQGRLTVTEDTSTDTVYMELRSLTSEDTALYFCATSPGYDFFDYWGQGTLVTVSS VL: SYVLTQPPSVSVAPGKTARITCGGDNIGSKSVHWYQQKPGQAPVLVVYDDSDRPSGIPERFSGSNSGNTATLTISRVEAGDEADYYCQVWDSSNDLLIFGGGTKLTVLG | 69700 | 1.7 ng/mL |
| anti-mutCALR antibody clone 140 (antibody, human IgG1, lambda, N297A, V domains shown) VH: EVQLVQSGAEVKKPGASVKVSCKVSGYTLTELSMQWVRQAPGKGLEWMGGFDPDAGETMYAEKFQGRLTVTEDTSTDTVYMELSSLRSEDTAVYFCATSPGYDFFDYWGQGTLVTVSS VL: SYVLTQPPSVSVAPGKTARITCGGDNIGSKSVHWYQQKPGQAPVLVVYDDSDRPSGIPERFSGSNSGNTATLTISRVEAGDEADYYCQVWDSSNDLLIFGGGTKLTVLG | 54700 | 4.3 ng/mL |
